According to patent US20040248207A1 (UNIVERSITY COLLEGE LONDON, published 2004):
One block for each binder: values may come before it.

Columns and labels:
Assay in all cases: GST pull-down on glutathione-sepharose beads, anti-GFP immunoblot
GFP/p11-1 fusion protein = molecular target: T1, GFP/p11-1 fusion protein (rat)
T1 construct: Used as COS-7 cell lysate; not shown: GFP reporter at the N end and its junction; vector-encoded C-terminal tail after the XbaI site (reverse primer p11-1-3' has no stop codon)
T1 chain: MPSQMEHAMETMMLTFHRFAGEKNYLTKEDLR
Method: (§1) To examine the binding of p11 to the N-terminus of Naᵥ1.8 in vitro, glutathione-sepharose beads pre-incubated with purified GST, serving as control, or GST-SNS(I) were incubated at 4° C. overnight with GFP-p11 fusion protein or GFP protein extracted from transfected COS cells in PBS. After intensive washing with ice-cold PBS, the bound proteins were denatured in sample buffer (100 mM Tris-HCl pH 6.8, 4% SDS, 0.2% Bromophenol Blue, 20% Glycerol. 200 mM DDT), separated by 10% SDS-PAGE, and transferred to nitrocellulose membrane (Hybond ECL; Amersham Pharmacia Biotech). The membrane was blocked for 1 h in 5% nonfat dry mirnl in PBS-T at room temperature (0.1% Tween-20 in PBS, pH7.4). Primary anti-GFP antibody (Santa Cruz Biotechnology) in 1:800 dilution was applied for 1 hr at room temperature. Secondary antibody (horseradish peroxidase-conjugated sheep anti-mouse IgG, Amersham Pharmacia Biotech) in 1:2000 dilution was applied for 1 hr at room temperature. ECL Western Blotting Detection Reagents (Amersham Pharmacia Biotech) was applied according to the manufacturer's instructions and the blot was exposed to BioMax film (Kodak).
(§2) GFP/p11-1, -2, -3 fusion protein were expressed in COS-7 cells by transient transfection. The COS cell lysates were incubated with affinity-purified GST-SNS(I), the N-terminal domain of Naᵥ1.8 fused to GST, immobilized on glutathione-sepharose beads and were examined by immunoblotting with anti-GFP antibodies.
as §2, with “GFP/p11-1A, p11-2, p11-2-1, and p11-2-2” for “GFP/p11-1, -2, -3”, “proteins” for “protein”, “antibodies. […] These protein fragments correspond to amino acids 1-51, 33-51, 52-77 respectively. GST-SNS(I) efficiently pulled down cell lysate p11-2.” for “antibodies.”

[1] = molecular target: T2, GFP/p11-1A fusion protein (rat, UniProt P05943 1-51)
T2 construct: Used as COS-7 cell lysate; not shown: GFP reporter at the N end and its junction; vector-encoded C-terminal tail after the XbaI site (reverse primer p11-2-1R has no stop codon)
T2 sequence: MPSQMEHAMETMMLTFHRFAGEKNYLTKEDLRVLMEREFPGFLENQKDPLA
Method: as §1, §2
as §2, with “GFP/p11-1A, p11-2, p11-2-1, and p11-2-2” for “GFP/p11-1, -2, -3”, “proteins” for “protein”, “antibodies. […] These protein fragments correspond to amino acids 1-51, 33-51, 52-77 respectively. GST-SNS(I) efficiently pulled down cell lysate p11-2.” for “antibodies.”

GST control protein = molecular target: T3, GST control protein (UniProt P08515 1-218 = GST)
T3 construct: Negative control on glutathione-sepharose beads; also called purified GST
Method: as §1, §2
as §2, with “GFP/p11-1A, p11-2, p11-2-1, and p11-2-2” for “GFP/p11-1, -2, -3”, “proteins” for “protein”, “antibodies. […] These protein fragments correspond to amino acids 1-51, 33-51, 52-77 respectively. GST-SNS(I) efficiently pulled down cell lysate p11-2.” for “antibodies.”

T3 sequence (P08515 whole entry): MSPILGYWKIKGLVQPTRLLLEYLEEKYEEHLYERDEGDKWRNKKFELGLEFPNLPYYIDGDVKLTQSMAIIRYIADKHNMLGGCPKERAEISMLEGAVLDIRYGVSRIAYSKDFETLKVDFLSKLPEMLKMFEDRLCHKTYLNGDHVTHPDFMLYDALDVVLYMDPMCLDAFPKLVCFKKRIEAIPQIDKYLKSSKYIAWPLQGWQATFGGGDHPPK

binding result (GFP/p11-1 fusion protein): no binding
binding result [1]: no binding
B1: GST/Nav1.8 N-terminus fusion protein, designated GST-SNS(I) (other)
chain: MELPFASVGTTNFRRFTPESLAEIEKQIAAHRAAKKARTKHRGQEDKGEKPRPQLDLKDCNQLPKFYGELPAELVGEPLEDLDPFYSTHRTFMVLNKSRTISRFSATWALWLFSPFNLIRRTAIKVS
notes: also called GST/SNS(I) fusion protein; not shown: glutathione-S-transferase (GST) as encoded by vector pGEX-5X-1 (Amersham Pharmacia Biotech); species and limits not stat; vector-encoded residues between GST and the EcoRI site of pGEX-5X-1

binding result (GST control protein): no binding
B2: GFP-p11 fusion protein (other, not shown: large carriers; small tags and cut ends)
chain: MPSQMEHAMETMMLTFHRFAGEKNYLTKEDLRVLMEREFPGFLENQKDPLAVDKIMKDLDQCRDGKVGFQSFLSLVAGLIIACNDYFVVHMKQKK
notes: Expressed from pBS-GFP/p11 in COS-7 cells and used as cell extract
